Source: paper PMC6805999, “Molecular Mechanism of SR Protein Kinase 1 Inhibition by the Herpes Virus Protein ICP27” (mBio, 2019)
Square brackets hold non-standard residues; d marks the D form. Ends that are not written are not given here.

Columns and labels:
[1] = biological target: T1, GB1-SRPK1 (full-length SRPK1 with N-terminal GB1 solubility tag) (Homo sapiens, UniProt Q96SB4); assay: Isothermal titration calorimetry (ITC) of ICP27 peptides with GB1-SRPK1; type: binding; settings: 25°C, 10 μM GB1-SRPK1 in cell, 120 μM peptide in syringe, 20 mM HEPES, 150 mM NaCl, 1 mM TCEP pH 7.4, single-site model, mean of 3 runs (± SD)
T1 construct: His tag; made in house; host or cells: E. coli BL21-CodonPlus (DE3)-RP
T1 sequence (Q96SB4 whole entry): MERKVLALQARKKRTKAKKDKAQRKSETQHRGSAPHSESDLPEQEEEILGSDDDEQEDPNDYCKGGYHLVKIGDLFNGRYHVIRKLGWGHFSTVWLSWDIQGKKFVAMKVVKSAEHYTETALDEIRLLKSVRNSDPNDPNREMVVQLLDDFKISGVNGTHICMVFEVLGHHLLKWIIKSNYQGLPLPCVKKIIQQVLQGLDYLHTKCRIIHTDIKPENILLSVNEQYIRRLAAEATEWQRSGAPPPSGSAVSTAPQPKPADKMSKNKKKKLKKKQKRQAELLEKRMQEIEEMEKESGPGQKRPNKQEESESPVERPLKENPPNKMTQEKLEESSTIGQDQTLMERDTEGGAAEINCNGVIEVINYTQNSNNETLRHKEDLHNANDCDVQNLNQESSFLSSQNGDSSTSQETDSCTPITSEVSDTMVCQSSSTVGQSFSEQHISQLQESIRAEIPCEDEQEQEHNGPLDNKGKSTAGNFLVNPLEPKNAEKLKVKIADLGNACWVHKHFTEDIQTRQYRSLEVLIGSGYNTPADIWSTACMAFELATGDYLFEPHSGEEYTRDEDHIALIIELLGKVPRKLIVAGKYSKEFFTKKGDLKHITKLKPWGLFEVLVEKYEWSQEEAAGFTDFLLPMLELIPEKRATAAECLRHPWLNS
Source text: The RGG box in full-length ICP27 (Fig. 1A) was previously identified by mutagenesis experiments as the segment necessary for interaction with SRPK1 ([27]), with the binding modulated by arginine methylation ([51]). […] To further confirm and map the RGG box interaction with SRPK1, we expressed and purified ^15N-labeled ICP27^103–155 and using the established backbone assignment ([55]) carried out nuclear magnetic resonance (NMR) signal perturbation mapping by comparison of ^1H-^15N correlation spectra in the presence and absence of unlabeled GB1-SRPK1 (Fig. 1E). […] These solution data together confirmed that SRPK1 binds with high affinity to a relatively short region of ICP27 containing the RGG box, with possible further contributions from nearby residues 112 to 121, whereas other residues retain significant flexibility when the peptide is bound. […]
GB1-SRPK1 and ICP27 peptides were placed into Slide-a-Lyzer G2 cassettes (Thermo Fisher) and dialyzed within identical buffer consisting of 20 mM HEPES, 150 mM NaCl, and 1 mM TCEP [Tris(2-carboxyethyl)phosphine hydrochloride] […] Protein concentrations were measured by absorbance at 280 nm using extinction coefficients ([67]) of 86,580 M^−1 cm^−1 and 5,500 M^−1 cm^−1 for GB1-SRPK1 and ICP27^103–155, respectively. […]

SRPK1 (Homo sapiens) = SRPK1 (Homo sapiens) (UniProt Q96SB4); settings: cited from earlier work
Sequence of SRPK1 (Homo sapiens) (Q96SB4 whole entry): as above

[2] = biological target: T2, full-length SRPK1 tagged with an N-terminal GB1 solubility tag (human, UniProt Q96SB4 1-655); assay: ITC; 10 μM GB1-SRPK1 in the sample cell, 120 μM ICP27 peptide in the syringe; 25°C; 20 mM HEPES, 150 mM NaCl, 1 mM TCEP, pH 7.4; single-site binding model; settings: both partners purified
T2 construct: serine-arginine protein kinase 1 (SRPK1), human, full length; probably also carries a His tag used for purification; also called GB1-SRPK1; serine-arginine protein kinase 1; source: E. coli, purified (GST or His tag purification, size exclusion chromatography); not shown: GB1, N-terminal, kept
T2 sequence (Q96SB4 whole entry): as above

## CC(C)C[C@H](NC(=O)[C@H](CCCNC(=N)N)NC(=O)[C@H](CO)NC(=O)[C@H](Cc1c[nH]c2ccccc12)NC(=O)[C@@H](NC(=O)[C@@H](N)CO)C(C)C)C(=O)NCC(=O)N[C@@H](C)C(=O)N[C@@H](CCCNC(=N)N)C(=O)N[C@@H](CCCNC(=N)N)C(=O)N1CCC[C@H]1C(=O)N[C@@H](CO)C(=O)N[C@@H](CS)C(=O)N[C@@H](CO)C(=O)N1CCC[C@H]1C(=O)N[C@@H](CCC(=O)O)C(=O)N[C@@H](CCCNC(=N)N)C(=O)N[C@@H](Cc1c[nH]cn1)C(=O)NCC(=O)NCC(=O)N[C@@H](CCCCN)C(=O)N[C@H](C(=O)N[C@@H](C)C(=O)N[C@@H](CCCNC(=N)N)C(=O)N[C@@H](CC(C)C)C(=O)N[C@@H](CCC(N)=O)C(=O)N1CCC[C@H]1C(=O)N1CCC[C@H]1C(=O)N1CCC[C@H]1C(=O)N[C@H](C(=O)N[C@@H](CCCCN)C(=O)N[C@@H](C)C(=O)N[C@@H](CCC(N)=O)C(=O)N1CCC[C@H]1C(=O)N[C@@H](C)C(=O)N[C@@H](CCCNC(=N)N(C)C)C(=O)NCC(=O)NCC(=O)N[C@@H](CCCNC(=N)N)C(=O)N[C@@H](CCCNC(=N)N)C(=O)NCC(=O)N[C@@H](CCCNC(=N)N)C(=O)N[C@@H](CCCNC(=N)N)C(=O)N[C@@H](CCCNC(=N)N)C(=O)NCC(=O)N[C@@H](CCCNC(=N)N(C)C)C(=O)NCC(=O)N[C@@H](CCCNC(=N)N(C)C)C(=O)NCC(=O)NCC(=O)N1CCC[C@H]1C(=O)NCC(=O)N[C@@H](C)C(=O)O)[C@@H](C)O)C(C)C [methylated ICP27^103–155]
[1]
  Kd: 261 nM

## SRSF1 (from UniProt Q07955)
SRPK1 (Homo sapiens)
  Kd: 50 nM

## CC(C)C[C@H](NC(=O)[C@H](CCCNC(=N)N)NC(=O)[C@H](CO)NC(=O)[C@H](Cc1c[nH]c2ccccc12)NC(=O)[C@@H](NC(=O)[C@@H](N)CO)C(C)C)C(=O)NCC(=O)N[C@@H](C)C(=O)N[C@@H](CCCNC(=N)N)C(=O)N[C@@H](CCCNC(=N)N)C(=O)N1CCC[C@H]1C(=O)N[C@@H](CO)C(=O)N[C@@H](CS)C(=O)N[C@@H](CO)C(=O)N1CCC[C@H]1C(=O)N[C@@H](CCC(=O)O)C(=O)N[C@@H](CCCNC(=N)N)C(=O)N[C@@H](Cc1c[nH]cn1)C(=O)NCC(=O)NCC(=O)N[C@@H](CCCCN)C(=O)N[C@H](C(=O)N[C@@H](C)C(=O)N[C@@H](CCCNC(=N)N)C(=O)N[C@@H](CC(C)C)C(=O)N[C@@H](CCC(N)=O)C(=O)N1CCC[C@H]1C(=O)N1CCC[C@H]1C(=O)N1CCC[C@H]1C(=O)N[C@H](C(=O)N[C@@H](CCCCN)C(=O)N[C@@H](C)C(=O)N[C@@H](CCC(N)=O)C(=O)N1CCC[C@H]1C(=O)N[C@@H](C)C(=O)N[C@@H](CCCNC(=N)N)C(=O)NCC(=O)NCC(=O)N[C@@H](CCCNC(=N)N)C(=O)N[C@@H](CCCNC(=N)N)C(=O)NCC(=O)N[C@@H](CCCNC(=N)N)C(=O)N[C@@H](CCCNC(=N)N)C(=O)N[C@@H](CCCNC(=N)N)C(=O)NCC(=O)N[C@@H](CCCNC(=N)N)C(=O)NCC(=O)N[C@@H](CCCNC(=N)N)C(=O)NCC(=O)NCC(=O)N1CCC[C@H]1C(=O)NCC(=O)N[C@@H](C)C(=O)O)[C@@H](C)O)C(C)C [ICP27^103–155]
[1]
  Kd: 93.9 nM

B1: synthetic peptide of ICP27 103-155, unmodified (peptide)
peptide: SVWSRLGARRPSCSPEQHGGKVARLQPPPTKAQPARGGRRGRRRGRGRGGPGA
notes: also called unmodified ICP27^103–155; nonmethylated ICP27^103–155 peptide; source: synthetic peptide (Peptide Protein Research)
[2]
  Kd: 94 ± 23 nM

B2: synthetic peptide of ICP27 103-155, dimethylated on R138, R148 and R150 (peptide)
peptide: SVWSRLGARRPSCSPEQHGGKVARLQPPPTKAQPA[ADMA]GGRRGRRRG[ADMA]G[ADMA]GGPGA
notes: HSV-1 ICP27, residues 103 to 155; also called methylated ICP27^103–155; methylated ICP27^103–155 peptide; source: synthetic peptide (Peptide Protein Research)
[2]
  Kd: 262 ± 21 nM
